Biological target: T1, Vta1 N-terminal domain (residues 1–167) (S. cerevisiae, UniProt Q06263 1-167)
T1 construct: Vta1, S. cerevisiae, N-terminal domain with two tandem MIT domains, residues 1-167; Isotope labelled (15N, 13C, 70% 2H) or unlabelled, depending on the NMR sample; also called Vta1NTD; WT Vta1NTD; source: E. coli BL21(DE3), purified (Ni-NTA, ULP1 cleavage, second Ni-NTA, Resource Q); not shown: His6, N-terminal, cleaved; SUMO, N-terminal, cleaved
T1 sequence (looked up): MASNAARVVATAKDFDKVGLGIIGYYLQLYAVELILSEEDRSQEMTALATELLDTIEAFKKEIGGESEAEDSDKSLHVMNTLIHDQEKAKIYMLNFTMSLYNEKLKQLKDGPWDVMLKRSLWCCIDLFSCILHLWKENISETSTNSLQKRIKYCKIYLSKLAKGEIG
Assay: ITC; about 0.1 mM Vta1NTD titrated with 2.0 mM Did2_(176–204) peptide, iTC-200, 25 °C, 25 mM sodium phosphate pH 7.0, 50 mM NaCl, one set of sites model
Conditions: both partners purified

Kd: 12.8 ± 1 µM | dH: -2.7 kcal/mol | stoichiometry N: 1.16 ± 0.0266
B1: Did2 fragment (176–204 aa) (peptide)
chain: WNVPEIKAKEVNVDDEKEDKLAQRLRALRG
notes: extra tryptophan inserted at the N-terminus of the peptide to estimate its concentration; Natural stretch with one added N-terminal Trp; Isotope labelled (15N, 13C) or unlabelled, depending on the NMR sample; source: E. coli BL21(DE3), purified (Ni-NTA, Resource Q, ULP1 cleavage, Superdex 75), lyophilized; not shown: His6, N-terminal, cleaved; SUMO, N-terminal, cleaved
